Consider two molecules from publication PMC11160731.

The target in one data set is VapB27;VapC27 (Mycobacterium tuberculosis …, UniProt O07779;P9WF83 1-78;1-137, |). Kind of data set: EMSA.
In the next data set the target is VapB46;VapC46 (Mycobacterium tuberculosis …, UniProt P9WF13;O50411 1-102;1-130, |). The data set can be described thus: EMSA. A general note: In EMSA bound probe runs differently from free probe, usually more slowly.
Chain of VapB46;VapC46 (P9WF13 whole entry, chain 1 of 2): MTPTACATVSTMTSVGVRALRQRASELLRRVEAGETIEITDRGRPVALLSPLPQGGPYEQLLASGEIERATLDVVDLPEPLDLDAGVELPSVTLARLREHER
Chain of VapB46;VapC46 (O50411 whole entry, chain 2 of 2): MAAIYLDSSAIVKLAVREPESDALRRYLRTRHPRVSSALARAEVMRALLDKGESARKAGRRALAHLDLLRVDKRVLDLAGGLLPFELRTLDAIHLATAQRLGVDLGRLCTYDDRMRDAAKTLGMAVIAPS

Chain of VapB27;VapC27 (O07779 whole entry, chain 1 of 2): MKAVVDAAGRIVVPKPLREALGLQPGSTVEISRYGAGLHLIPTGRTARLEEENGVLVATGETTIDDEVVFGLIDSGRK
Chain of VapB27;VapC27 (P9WF83 whole entry, chain 2 of 2): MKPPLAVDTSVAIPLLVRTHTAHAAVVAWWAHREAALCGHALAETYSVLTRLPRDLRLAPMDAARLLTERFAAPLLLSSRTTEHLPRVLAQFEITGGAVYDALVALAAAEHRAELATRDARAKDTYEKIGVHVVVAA

B1: vapB27 promoter oligo (dsDNA)
DNA 1: CGGTGAGTCGACTTCCGCACCTGAGTGGGAAGCCATTGGTATCGTATTCCCATGA
DNA 2: TCATGGGAATACGATACCAATGGCTTCCCACTCAGGTGCGGAAGTCGACTCACCG
Turning to B1, the binding result in the data set with VapB27;VapC27 is on record as “binds”.

B2: vapB46 promoter oligo (dsDNA)
DNA 1: TCCTCCCAGCTCAGCGCCAACCAACCGAGGAACAACGCGCCGACTTTTTCAG
DNA 2: CTGAAAAAGTCGGCGCGTTGTTCCTCGGTTGGTTGGCGCTGAGCTGGGAGGA
For B2, in the data set with VapB46;VapC46, the binding result is “binds”.
